Test results published in patent CN1652821A (dated 2005).
Positions count from the first letter of the chain named. Each block holds one binder with its values, some of them ahead of it.

What was measured:
[1] = target: T1, LNCaP细胞上表达的PSMA (human, UniProt Q04609 1-750); experiment: Scatchard analysis, 111In-DOTA-labelled antibody binding to a fixed number of LNCaP cells
T1 construct: whole, on cells; Endogenous PSMA of LNCaP cells; also used for the LNCaP membrane-fraction ELISA; also called PSMA on LNCaP cells; LNCaP细胞膜
T1 sequence (Q04609 whole entry): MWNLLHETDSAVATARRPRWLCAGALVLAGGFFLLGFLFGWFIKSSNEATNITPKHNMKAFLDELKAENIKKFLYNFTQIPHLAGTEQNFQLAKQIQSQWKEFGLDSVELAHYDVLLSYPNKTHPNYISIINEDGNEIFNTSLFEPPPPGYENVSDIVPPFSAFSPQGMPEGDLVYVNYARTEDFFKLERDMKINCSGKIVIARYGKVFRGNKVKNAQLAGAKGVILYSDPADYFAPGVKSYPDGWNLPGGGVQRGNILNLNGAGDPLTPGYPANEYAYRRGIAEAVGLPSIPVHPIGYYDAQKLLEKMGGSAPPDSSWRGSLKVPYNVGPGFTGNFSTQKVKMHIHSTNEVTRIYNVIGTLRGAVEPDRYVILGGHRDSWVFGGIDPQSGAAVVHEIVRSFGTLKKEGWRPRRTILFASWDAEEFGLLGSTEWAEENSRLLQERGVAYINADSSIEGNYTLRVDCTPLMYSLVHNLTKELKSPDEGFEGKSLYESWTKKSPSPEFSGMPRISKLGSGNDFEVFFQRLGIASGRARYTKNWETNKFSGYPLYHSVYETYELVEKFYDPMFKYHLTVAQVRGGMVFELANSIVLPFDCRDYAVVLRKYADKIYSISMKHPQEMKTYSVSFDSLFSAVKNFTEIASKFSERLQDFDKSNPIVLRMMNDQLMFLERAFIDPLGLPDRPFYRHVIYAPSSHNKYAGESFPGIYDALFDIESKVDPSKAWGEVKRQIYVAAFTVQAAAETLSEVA

[2] = target: T2, 细菌表达的含有PSMA氨基酸1-173的融合蛋白 (human, UniProt Q04609 1-173); experiment: solid-phase ELISA on bacterially expressed PSMA fragment fusion proteins
T2 construct: Bacterially expressed fusion protein
T2 sequence (Q04609 1-173): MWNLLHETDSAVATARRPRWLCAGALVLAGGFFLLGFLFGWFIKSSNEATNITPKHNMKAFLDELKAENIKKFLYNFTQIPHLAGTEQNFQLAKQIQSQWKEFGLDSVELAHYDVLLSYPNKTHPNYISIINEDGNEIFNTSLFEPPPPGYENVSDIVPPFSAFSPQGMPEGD

[3] = target: T3, 细菌表达的含有PSMA氨基酸134-437的融合蛋白 (human, UniProt Q04609 134-437); experiment: as above
T3 construct: Bacterially expressed fusion protein
T3 sequence (Q04609 134-437): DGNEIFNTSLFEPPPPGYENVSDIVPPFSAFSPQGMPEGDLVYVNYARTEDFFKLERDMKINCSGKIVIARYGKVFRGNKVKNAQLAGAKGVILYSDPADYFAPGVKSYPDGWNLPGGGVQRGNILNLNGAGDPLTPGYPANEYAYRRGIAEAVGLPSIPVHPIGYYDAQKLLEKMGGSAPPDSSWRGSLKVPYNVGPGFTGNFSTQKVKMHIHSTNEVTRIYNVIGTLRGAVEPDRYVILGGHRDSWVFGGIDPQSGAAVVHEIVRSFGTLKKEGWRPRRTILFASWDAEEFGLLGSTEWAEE

[4] = target: T4, 细菌表达的含有PSMA氨基酸438-750的融合蛋白 (human, UniProt Q04609 438-750); experiment: as above
T4 construct: range 438-750; Bacterially expressed fusion protein; also called PSMA 438-750 fusion protein
T4 sequence (Q04609 438-750): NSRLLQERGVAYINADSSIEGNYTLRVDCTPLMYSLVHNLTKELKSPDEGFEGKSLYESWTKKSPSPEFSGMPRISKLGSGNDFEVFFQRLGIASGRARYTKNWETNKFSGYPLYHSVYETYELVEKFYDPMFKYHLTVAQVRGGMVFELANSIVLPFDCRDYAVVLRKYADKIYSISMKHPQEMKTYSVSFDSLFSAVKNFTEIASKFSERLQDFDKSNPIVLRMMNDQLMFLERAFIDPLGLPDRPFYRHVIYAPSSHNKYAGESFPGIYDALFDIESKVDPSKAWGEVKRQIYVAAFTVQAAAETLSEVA

B1: DOTA-标记的4A3 (antibody, IgG1, V domains shown)
VH: EVQLVQSGAEVKKPGESLKISCKGSGYSFTSYWIGWARQMPGKGLEWMGIIYPGDSDTRYSPSFQGQVTISADKSISTAYLQWSSLKASDTAMYYCSAANSSHWYFDLWGRGTLVTVSS
VL: EIVLTQSPATLSLSPGERATLSCRASQSVSSYLAWFQQKPGQAPRLLIYDASNRATGIPARFSGSGSGTDFTLTISSLEPEDFAVYYCQQRSNWLMYTFGQGTKLEIK
modifications: DOTA coupled through one carboxyl group to protein amino groups, sites not stated; 111In chelated in the Scatchard study
notes: 4A3 IgG1 kappa conjugated with DOTA; also called DOTA-4A3; 111 In-DOTA-标记抗体 4A3
Kd [1]: 500 pM

B2: 人单克隆抗体(HuMAb)4A3 (antibody, V domains shown)
VH: B1 VH
VL: B1 VL
notes: Human IgG1 kappa (γ1,κ) from a hybridoma of HuMAb mouse #17018
binding result [2]: no binding
binding result [3]: no binding
binding result [4]: no binding

Further lines, results first:

binding result [2]: no binding
binding result [3]: no binding
binding result [4]: no binding
B3: 人单克隆抗体(HuMAb)7F12 (antibody, V domains shown)
VH: B1 VH with E1A, Y32F, S97A, A98T, H103F, Y105N
VL: B1 VL with F36Y
notes: as for B2

Kd [1]: 500 pM
B4: DOTA-标记的7F12 (antibody, IgG1, V domains shown)
VH: B1 VH with E1A, Y32F, S97A, A98T, H103F, Y105N
VL: B1 VL with F36Y
modifications: DOTA coupled through one carboxyl group to protein amino groups, sites not stated; 111In chelated in the Scatchard study
notes: 7F12 IgG1 kappa conjugated with DOTA; also called DOTA-7F12; 111 In-DOTA-标记抗体 7F12
